Consider four molecules from US20170368168A1 (AGENUS, published 2017).

Changes are numbered by the printed parent chain. Names may count otherwise.

In assay [1] the target is T1, recombinant human TIM-3 Fc (R&D Systems, Cat#2365-TM) (human, UniProt P01857-1 100-330 = IgG part).
T1 construct: also called rhTIM-3 Fc; human TIM-3/Fc chimera
Briefly: Luminex suspension array, antigen coupled to beads.

For assay [2], the target named is T2, recombinant human TIM-1 His (R&D Systems, Cat#1750-TM) (human, UniProt Q96D42 21-295).
T2 construct: also called rhTIM-1 His
T2 sequence (looked up): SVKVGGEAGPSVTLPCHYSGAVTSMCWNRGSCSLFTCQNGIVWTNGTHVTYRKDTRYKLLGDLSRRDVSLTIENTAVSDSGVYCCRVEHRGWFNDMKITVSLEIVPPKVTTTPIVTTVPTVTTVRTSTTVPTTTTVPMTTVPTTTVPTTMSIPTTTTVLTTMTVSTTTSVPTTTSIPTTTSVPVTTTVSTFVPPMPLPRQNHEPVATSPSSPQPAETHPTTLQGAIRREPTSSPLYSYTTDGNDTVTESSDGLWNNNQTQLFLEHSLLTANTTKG
Put plainly: Luminex suspension array, antigen coupled to beads.

In assay [3] the target is T3, recombinant human TIM-4 His (R&D, Cat#2929-TM) (human, UniProt Q96H15 25-315).
T3 construct: also called rhTIM-4 His
T3 sequence (looked up): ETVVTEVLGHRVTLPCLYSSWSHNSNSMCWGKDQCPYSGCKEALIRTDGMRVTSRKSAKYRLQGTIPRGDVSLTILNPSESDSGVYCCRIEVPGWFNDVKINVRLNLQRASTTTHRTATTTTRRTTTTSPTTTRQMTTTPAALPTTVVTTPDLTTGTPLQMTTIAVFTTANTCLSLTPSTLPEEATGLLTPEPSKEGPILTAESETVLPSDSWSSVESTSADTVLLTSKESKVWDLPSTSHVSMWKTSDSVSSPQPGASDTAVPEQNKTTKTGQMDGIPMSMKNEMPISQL
Put plainly: Luminex suspension array, antigen coupled to beads.

The target of assay [4] is T4, human TIM-3 expressed on cells (human, UniProt Q8TDQ0 22-301).
T4 construct: also called T cell immunoglobulin and mucin domain-3; HAVCR2
T4 sequence: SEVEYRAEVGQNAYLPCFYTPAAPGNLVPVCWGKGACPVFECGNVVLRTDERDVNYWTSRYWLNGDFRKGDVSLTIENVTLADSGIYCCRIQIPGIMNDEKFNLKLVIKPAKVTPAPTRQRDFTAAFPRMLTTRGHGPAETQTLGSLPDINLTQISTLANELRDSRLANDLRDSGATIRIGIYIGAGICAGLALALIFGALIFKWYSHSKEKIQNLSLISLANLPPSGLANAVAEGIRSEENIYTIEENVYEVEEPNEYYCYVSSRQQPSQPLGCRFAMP
Briefly: flow cytometry, 1624-5 cells expressing human TIM-3. (In flow cytometry, cells or beads pass a laser one at a time.)

Assay [5] concerns the target T5, recombinant mouse TIM-3 Fc (R&D Systems, #1529-TM) (mouse, UniProt Q8VIM0 20-191).
T5 construct: also called rmTIM-3 Fc; not shown: Fc part
T5 sequence (looked up): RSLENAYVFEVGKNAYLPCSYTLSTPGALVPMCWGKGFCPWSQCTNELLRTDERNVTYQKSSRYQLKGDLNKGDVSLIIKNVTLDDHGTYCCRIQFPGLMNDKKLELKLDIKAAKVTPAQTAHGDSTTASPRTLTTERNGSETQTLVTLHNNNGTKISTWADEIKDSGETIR
Briefly: Luminex suspension array, antigen coupled to beads.

Assay [6] concerns the target T6, recombinant human OX40 His (Sino Biological, #10481-H08H) (human, UniProt P43489 29-216).
T6 construct: also called rhOX40 His
T6 sequence (looked up): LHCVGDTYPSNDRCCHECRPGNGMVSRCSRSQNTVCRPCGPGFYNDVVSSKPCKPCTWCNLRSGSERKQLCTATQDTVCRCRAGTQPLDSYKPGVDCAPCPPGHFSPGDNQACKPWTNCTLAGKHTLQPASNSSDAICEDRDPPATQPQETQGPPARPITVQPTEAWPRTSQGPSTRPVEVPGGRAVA
Briefly: Luminex suspension array, antigen coupled to beads.

Assay [7] deals with T7, recombinant human GITR Fc (R&D Systems, #689-GR) (human, UniProt Q9Y5U5 26-161).
T7 construct: also called rhGITR Fc; not shown: Fc part
T7 sequence (looked up): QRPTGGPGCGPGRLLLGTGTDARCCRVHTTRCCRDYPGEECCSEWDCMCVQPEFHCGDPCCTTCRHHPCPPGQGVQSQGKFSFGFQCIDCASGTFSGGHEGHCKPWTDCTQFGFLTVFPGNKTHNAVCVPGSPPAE
Put plainly: Luminex suspension array, antigen coupled to beads.

The target of assay [8] is T8, recombinant human DR3 Fc (R&D Systems, #943-D3) (human, UniProt Q93038 25-201).
T8 construct: also called rhDR3 Fc; not shown: Fc part
T8 sequence (looked up): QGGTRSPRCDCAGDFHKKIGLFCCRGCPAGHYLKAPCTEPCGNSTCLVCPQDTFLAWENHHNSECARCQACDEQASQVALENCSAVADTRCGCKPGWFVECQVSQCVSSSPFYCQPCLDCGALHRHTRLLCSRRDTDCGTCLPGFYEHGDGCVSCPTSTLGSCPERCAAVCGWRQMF
Put plainly: Luminex suspension array, antigen coupled to beads.

For assay [9], the target named is T9, recombinant human CD137 Fc (in house produced material) (human, UniProt Q07011 24-186).
T9 construct: also called rhCD137 Fc; not shown: Fc part
Briefly: Luminex suspension array, antigen coupled to beads.

Assay [10] addresses T4, human TIM-3 expressed on cells. Put plainly: flow cytometry, Jurkat cells ectopically expressing human TIM-3.
The target is the same in assay [11]. Briefly: flow cytometry, Jurkat cells ectopically expressing human TIM-3; pab2188w is the weaker comparator.

B1: pab2088 (IgG1) (antibody, V domains shown)
VH: not shown
VL: DIQMTQSPSSLSASVGDRVTITCRASQGISNYLAWYQQKPGKVPKLLIYAASTLQSGVPSRFSGSGSGTDFTLTISRLEPEDFAVYYCQQYGSSPLTFGGGTKVEIK
For B1, the binding result was “binds” in [1]; “no binding (tested: 10 ng/ml, 100 ng/ml, and 1000 ng/ml)” in assay [2]; “no binding (tested: 10 ng/ml, 100 ng/ml, and 1000 ng/ml)” in assay [3]; “binds” in assay [4].

B2: AM-2 (IgG1 N297A) (antibody, V domains shown)
VH: EVQLVESGGGLVQPGGSLRLSCAASGFTFRQNAWSWVRRAPGKGLEWVSAISGSGGSTYYADSVKGRFTISRDNSKNTLYLQMNSLRAEDTAVYYCAKGGDYGGNYFDYWGQGTLVTVSS
VL: EIVLTQSPATLSLSPGERATLSCRASQSVSSYLAWYQQKPGQAPRLLIYDASNRATGIPASFSGSGSGTDFTLTISRLEPEDFAVYYCQQYGSSPLTFGGGTKVEIKR
In the case of B2, the binding result in [5], in assay [2], in assay [3], in [6], in assay [7] and in assay [8] was “no binding (tested: 10000 ng/ml to 0.1 ng/ml)” in each case. The binding result in [9] was “no binding (tested: 10000 ng/ml to 0.1 ng/ml)”; in assay [10] it was “binds”.

B3: pab2188w (IgG1 N297A) (antibody, V domains shown)
VH: not shown
VL: B2 VL
For B3, the binding result in [5], in [2], in assay [3], in [6], in [7] and in [8] was “no binding (tested: 10000 ng/ml to 0.1 ng/ml)” each time. In addition, the binding result in [9] was “no binding (tested: 10000 ng/ml to 0.1 ng/ml)”; in [11] it was “binds”.

B4: AM-6 (IgG1 N297A) (antibody, V domains shown)
VH: B2 VH with R30A, Q31R
VL: B2 VL
Consider B4, for which the binding result in [5], in assay [2], in [3], in assay [6], in [7] and in assay [8] was “no binding (tested: 10000 ng/ml to 0.1 ng/ml)” each time. Moreover, the binding result in [9] is reported as “no binding (tested: 10000 ng/ml to 0.1 ng/ml)”; in [10], “binds”.
